Results as given in the supplement of paper PMC9170038.

Test system: MS2 coat protein
Assay: apparent KD of MS2 coat protein; designed switch direction (-1 OFF switch, 1 ON switch): -1; higher = weaker reporter binding
Outline: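 Apparent KD, taken as the median over clusters for each design, was obtained by curve-fitting normalised cluster fluorescence. Designed RNA switches had been transcribed on Illumina chips by stalled E. coli RNA polymerase and titrated with SNAP-549-labelled MS2 coat protein, doubling from 0.7 or 1.5 nM to 3 µM.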

[1] = input ligand: microRNA oligo, concentration not stated
[2] = Eterna round: R95, input ligand: FMN 200 uM
[3] = Eterna round: R95, input ligand: microRNA oligo, concentration not stated
[4] = Eterna round: R95, input ligand: none

Row | Sequence | apparent KD of MS2 coat protein (input ligand: FMN 200 uM) | apparent KD of MS2 coat protein (input ligand: none) | apparent KD of MS2 coat protein [1] | apparent KD of MS2 coat protein [2] | apparent KD of MS2 coat protein [3] | apparent KD of MS2 coat protein [4]
1 | AGCCUAGCAGGAUAUGCCCGGGAUAACAUGAGGAUCACCCAUGUGACUGAUUGAUAUCUUGCAGAAGGGCUAGGGA [JL-EX5-4.06 ViennaUCT mod] (Eterna round: R97, puzzle: Exclusion 5) | 187 nM | 25.5 nM |  |  |  | 
2 | AAGAAGGCCGUAGGAUAUACAGCAAGAACGCGAGUAGAAGGACGAUACAUGAGGAUCACCCAUGUACGUGGGUAGUGCUCGUGC [Soatceri] (Eterna round: R96, puzzle: Exclusion NG 1) | 26 nM | 21.8 nM | 10.9 nM |  |  | 
3 | UUGCAGUCAUCAGGAUAUAGUAUUACGGCCAUUUAUAUUUUCAUACAUGAGGAUCACCCAUGUCGCUAGAAGGGAUUAUCGAUU [Exclusion NG 2] (Eterna round: R96, puzzle: Exclusion NG 2) |  |  | 34.5 nM |  |  | 
4 | UACUUGUUAGGAUAUCUUACAUUUGCAUUAUAGCAACUAUUGGAGAAGGGACAUGAGGAUCACCCAUGUUUGGG [tap-tap-tappy16] (Eterna round: R97, puzzle: Exclusion 4) | 602 nM | 486 nM |  |  |  | 
5 | AUAAGAAAGGCAGGAUAUUGUGCACCCUAGUGACAAGAAGGGCCAGGGUGUGCGCUCCACAUGAGGAUCACCCAUGUUAGAAAG [Berimate] (Eterna round: R96, puzzle: Exclusion NG 1) | 26.4 nM | 29.3 nM | 27 nM |  |  | 
6 | AAAACAAACGAAGGAUAUGCAACCCGGCGGUACGCAGAAGGUCGAAAGAUUUUCAUUCUACAUGAGGAUCACCCAUGUACGGGC [Leange] (Eterna round: R96, puzzle: Exclusion NG 1) | 48.5 nM | 52.3 nM | 39.7 nM |  |  | 
7 | GGUCUACAUGAGGAUCACCCAUGUAAGGAUAUCGUCACUGGAGCCUCGGCUCCAGUGACGAGAAGGUACGUAAU [E1/12-A2] (Eterna round: R97, puzzle: Exclusion 1) | 31.5 nM | 34.5 nM |  |  |  | 
8 | CCCAGUUACGUAGGAUAUUGUACAUGAGGAUCACCCAUGUAAUAAAUGAGGAUUUCGGGUGUCUACAAGAAGGACGGGAUAGGC [Ostracism 17 - Jieux - Exclusion NG 2] (Eterna round: R96, puzzle: Exclusion NG 2) | 186 nM | 93 nM | 80.6 nM |  |  | 
9 | UAAGCUACUGUCAGGAUAUCGUAAUUGGUGAACGACGAGAAGGGACAUGAGGAUCACCCAUGUCGAUGACUGGG [Eternabot (L2) Solution 97] (Eterna round: R97, puzzle: Brourd's mod of Exclusion 4) | 386 nM | 200 nM |  |  |  | 
10 | CCUGAGGUUUGGUAGAAAACAUGAGGAUCACCCAUGUAUGUGCAGGAUAUCGACCGGCUCGCUGCCGAGAAGGGCAUCUACAUA [Eternabot solution 31] (Eterna round: R96, puzzle: Exclusion NG 3) | 45.4 nM | 36.9 nM | 24.8 nM |  |  | 
11 | UUGUUGUAUGUAGGAUAUGCAUAUUGUUAUUAUGCAGAAGGACAUGAGGAUCACCCAUGUAUAUUACUAUUAUGUACUAUAUAU [MOD of Hoglahoo's a different Title] (Eterna round: R96, puzzle: Exclusion NG 1) | 106 nM | 32.6 nM | 25.5 nM |  |  | 
12 | AGUUGUUCAGGAUAUGAUGUAUGUUACAUGAGGAUCACCCAUGUAGGUCCUGGAUAUGUAUCAGAAGGGAAUAUCU [JR_Ex5_Sub059] (Eterna round: R97, puzzle: Exclusion 5) | 40.8 nM | 32 nM |  |  |  | 
13 | AUAAGGUCAGGAUAUGCUUGGCUGAUUCUGGUGUCCAAAUGACAUGAGGAUCACCCAUGUAGAAGGGACAUCAG [Usgeledi] (Eterna round: R97, puzzle: Exclusion 2) | 16.1 nM | 15.1 nM |  |  |  | 
14 | GUACGGUAAGGAUAUUGGAGGCCAAAGCACGAGUAGUACUCUAAGAAGGUACAUGAGGAUCACCCAUGUACGAG [Eternabot (L2) Solution 63] (Eterna round: R97, puzzle: Exclusion 4) | 18.8 nM | 16.9 nM |  |  |  | 
15 | AGUACUACCACGAAAGUGUUAGUACAAUAAGCUUGUGAAACAUGAGGAUCACCCAUGUCCUCAUAAGCUCGUCUUAU [salish99_TOv2_r3_021] (puzzle: Sensor v3, turn-off variant 2) |  |  |  | 16.7 nM | 524 nM | 16.5 nM
16 | GCAAGCUUUUUCAAUAACAACAUGAGGAUCACCCAUGUUUAAGCUAUUACUUUUGGGCUCUUUAGUGCUAGUCUUAU [JR_STOV1_Sub037] (Eterna round: R97, puzzle: Sensor, turn-off variant 1) | 19.1 nM | 17.7 nM |  |  |  | 
17 | GAUUAACAUGAGGAUCACCCAUGUGAGGAUAUUGACUUGCUCACUUUCCGAUUCGAGUCGAGAAGGCGCAUCUU [1986#117] (Eterna round: R97, puzzle: Exclusion 1) | 23.9 nM | 21.9 nM |  |  |  | 

Row | Sequence | apparent KD of MS2 coat protein (input ligand: FMN 200 uM) | apparent KD of MS2 coat protein (input ligand: none) | apparent KD of MS2 coat protein [1] | apparent KD of MS2 coat protein [2] | apparent KD of MS2 coat protein [3] | apparent KD of MS2 coat protein [4]
18 | UCAUAACAUGAGGAUCACCCAUGUGAGGAUAUGAUACUAUGUACUUCGGUACAUAGUAUCAGAAGGCACAUGCU [Brourd's Ex1-3: 11 (nt 72 G)] (puzzle: Exclusion 1) |  |  |  | 34.8 nM | 127 nM | 127 nM
19 | CCGCCGCAAGGAUAUACUUGCGGUGAUGUUCGAGUUCUUCUACUUGAGGAUCACCCAAGUAGAAGGUGCAAAAC [jl-ex2.4.59 ViennaUCT mod] (Eterna round: R97, puzzle: Exclusion 2) | 13 nM | 12.5 nM |  |  |  | 
20 | AGGUGCUUCUGGAAACAUGAGGAUCACCCAUGUUGAGUUAGCGAGGAUAUCGGUAACCAUUGUUAUGAGAAGGCGCAAACCAGA [Ex NG3 #37] (Eterna round: R96, puzzle: Exclusion NG 3) | 19.9 nM | 20.2 nM | 11.4 nM |  |  | 
21 | AGUGUGUGGCAGGAUAUGCAAUUAAUAGGUGAAGCAGAAGGGUCUACAUGAGGAUCACCCAUGUAUGCGGUUGA [Ex6 #23] (Eterna round: R97, puzzle: Exclusion 6) | 297 nM | 68.5 nM |  |  |  | 
22 | UUGUUAUAUGUAGGAUAUGCAUAUUAUUAUUAUGCAGAAGGACAUGAGGAUCACCCAUGUAUAUUGUUGUUAUAUAUUAUAUAU [Title] (Eterna round: R96, puzzle: Exclusion NG 1) |  |  | 18.2 nM |  |  | 
23 | ACGUUUUUUGAGGAUAUGCGACGUUCCUUCGUCGUAGAAGGCGAUACAUGAGGAUCACCCAUGUUUAUGGGCAU [LRO-Ex6-17] (puzzle: Exclusion 6) |  |  |  |  | 86.4 nM | 
24 | AAGAAACAUGAGGAUCACCCAUGUGAGGAUAUGAUAAAGAAAAGAAAAGAAAGAAGACUCAGAAGGCACAAAGG [salish99-ex1_r3_041] (puzzle: Exclusion 1) |  |  |  | 31 nM | 26.7 nM | 28.9 nM
25 | ACAUGAGGAUCACCCAUGUCCGGCUGGUCCGUCUCGGCUGUCGAGGAUAUAGCUUGGUGUCCGCGCUAGAAGGUGGGAGCCGGU [Aenatbe mod 70] (Eterna round: R96, puzzle: Exclusion NG 3) | 61 nM | 56.6 nM | 40.2 nM |  |  | 
26 | GGGCCCGGUGUGAGGAUAUGUUUGGGUAAACCCGGGCAGAAGGCACAUGAGGAUCACCCAUGUAAGCCGGGCCC [-37.5, -35.4 kcal, A 23%, 5bbis-0] (Eterna round: R97, puzzle: Brourd's mod of Exclusion 4) | 14.7 nM | 19.2 nM |  |  |  | 
27 | GGAGCGGAAGGAUAUGCUGCGGGAUUGAAUGGAAAGAAAAUACAUGAGGAUCACCCAUGUAGAAGGUCCGUGAA [Tiquxe] (puzzle: Exclusion 2) |  |  |  |  | 17 nM | 
28 | CAGUACUGAGGAUAUACAUGAGGAUCACCCAUGUCCCAAAAGUAGGAUACUACUAUUAGUAGAAGGCAGUACUG [Fiskers Ex 3 828 mod 25] (puzzle: Exclusion 3) |  |  |  |  | 38.9 nM | 
29 | CUCGGACAUGAGGAUCACCCAUGUGAGGAUAUGGUGCUAUCGUCAUUAGACGAUUGCGUUAGAAGGCAUAUUUU [LRO-Excl1-30] (puzzle: Exclusion 1) |  |  |  |  | 24.4 nM | 
30 | AGUACAAACACGAAAGUGUUUGUACAAUAAGCUUGUGGAACAUGAGGAUCACCCAUGUCCUCAUAAGCUCGUCUUAU [Mat - Sensor v3 - Turn-off var 2 - D29] (puzzle: Sensor v3, turn-off variant 2) |  |  |  | 15.7 nM | 87.1 nM | 14.5 nM
31 | UCGGCGCGAGGAUAUACGUUUGCGCUUUUUCGUUUUUGUGUACAUGAGGAUCACCCAUGUAGAAGGCGCGCCGC [Apr-15 SS2-18] (puzzle: Exclusion 2) |  |  |  |  | 14.9 nM | 
32 | CUUUUGUGAGGAUAUUAGUAGUAAAUAAAUAAAAUUACUACUUAGAAGGCACAUGAGGAUCACCCAUGUUCCUC [salish99_ex4_r3_043] (Eterna round: R96, puzzle: Exclusion 4) | 238 nM | 29.6 nM | 25.8 nM |  |  | 
33 | AGAUGGCGAGGAUAUACAUGAGGAUCACCCAUGUGAGAAGAGAAAGUGAGGAAGAAAAGUAGAAGGCGCUGUCA [Mat - Exclusion 3 - Mod of Salish D21] (puzzle: Exclusion 3) |  |  |  | 200 nM | 60.9 nM | 57 nM
34 | GGAGAGAAACAGGAUAUGGGAGGGAGGACCGGACCAGAAGGGUUGACAUGAGGAUCACCCAUGUAGAGAUCCUC [AK-MS2ROC-r4-exclusion6-6.7] (Eterna round: R97, puzzle: Exclusion 6) | 486 nM | 1700 nM |  |  |  | 
